B1: HDV Ribozyme (parent)
chain: GGCCGGCAUGGUCCCAGCCUCCUCGCUGGCGCCGGCUGGGCAACAUUCCGAGGGGACCGUCCCCUCGGUAAUGGCGAAUGGGACCCA

The source of these data is the RNAGym collection of RNA variant scans (doi:10.7554/elife.80360).

The data set covers variants of B1. In words: self-cleavage, relative activity (ratio to wild type); higher = more cleavage; co-transcriptional.
In the case of GGCCGGCAUGGUCCCAGCCUCCUCGCUGGAGCCGGCUGGGCAACAUUCCGAGGGGACCGUCCCCUCGGUAAUGGCGAAUGGGAUCCA [C30A C84U], the self-cleavage turned out to be 0.13. Then GGCCGGCAUGGUCCCAGCCUCCUCGCUGGAGCCGGCUGGGCAACAUUCCGAGGGGACCGUCCCCUCGGUAAUGGCGAAUGGGAACCA [C30A C84A], with 0.295; and GGCCGGCAUGGUCCCAGCCUCCUCGCUGGAGCCGGCUGGGCAACAUUUCGAGGGGACCGUCCCCUCGGUAAUGGCGAAUGGGACCCA [C30A C48U], with 0.533; and GGCCGGCAUGGUCCCAGCCUCCUCGCUGGAGCCCGCUGGGCAACAUUCCGAGGGGACCGUCCCCUCGGUAAUGGCGAAUGGGACCCA [C30A G34C], with 0.119. For GGCCGGCAUGGUCCCAGCCUCCUCGCUGGAGCCAGCUGGGCAACAUUCCGAGGGGACCGUCCCCUCGGUAAUGGCGAAUGGGACCCA [C30A G34A] the value was 0.0801. Then GGCCGGCAUGGUCCCAGCCUCCUCGCUGGAGCCGGCUGCGCAACAUUCCGAGGGGACCGUCCCCUCGGUAAUGGCGAAUGGGACCCA [C30A G39C], with 0.157; and GGCCGGCAUGGUCCCAGCCUCCUCGCUGGAGCCGGCUGAGCAACAUUCCGAGGGGACCGUCCCCUCGGUAAUGGCGAAUGGGACCCA [C30A G39A], with 0.0489; and GGCCGGCAUGGUCCCAGCCUCCUCGCUGGAGCCGGCUGGGCAACAUUCCGAGGGGAUCGUCCCCUCGGUAAUGGCGAAUGGGACCCA [C30A C57U], with 0.587. In the case of GGCCGGCAUGGUCCCAGCCUCCUCGCUGGAGCCGGCUGGGCAACAUUCCGAGGGGAACGUCCCCUCGGUAAUGGCGAAUGGGACCCA [C30A C57A], the self-cleavage stood at 0.688. For GGCCGGCAUGGUCCCAGCCUCCUCGCUGGAGCCGGCUGGGCAACAUUCCGAGGGGAGCGUCCCCUCGGUAAUGGCGAAUGGGACCCA [C30A C57G] the value was 0.284; for GGCCGGCAUGGUCCCAGCCUCCUCGCUGGAGCCGGCUGGGCAACAUUCCGAGCGGACCGUCCCCUCGGUAAUGGCGAAUGGGACCCA [C30A G53C], 0.47; for GGCCGGCAUGGUCCCAGCCUCCUCGCUGGAGCCGGCUGGGCAACAUUCCGAGGUGACCGUCCCCUCGGUAAUGGCGAAUGGGACCCA [C30A G54U], 0.5. Then GGCCGGCAUGGUCCCAGCCUCCUCGCUGGAGCCGGCUGGGCAACAUUCCGAGGAGACCGUCCCCUCGGUAAUGGCGAAUGGGACCCA [C30A G54A], with 0.535; and GGCCGGCAUGGUCCCAGCCUCCUCGCUGGAGCCGGCUGGGCAACAUUCCGAGGCGACCGUCCCCUCGGUAAUGGCGAAUGGGACCCA [C30A G54C], with 0.519. For GGCCGGCAUGGUCCCAGCCUCCUCGCUGGAGCCGGCUGGGCAACAUUCCGAGGGGACCGUCCGCUCGGUAAUGGCGAAUGGGACCCA [C30A C63G] the value was 0.251. With GGCCGGCAUGGUCCCAGCCUCCUCGCUGGAGCCGGCUGGGCAACAUUCCGAGGGGACCGUCCUCUCGGUAAUGGCGAAUGGGACCCA [C30A C63U], the self-cleavage turned out to be 0.415. For GGCCGGCAUGGUCCCAGCCUCCUCGCUGGAGCCGGCUGGUCAACAUUCCGAGGGGACCGUCCCCUCGGUAAUGGCGAAUGGGACCCA [C30A G40U] the value was 0.183. Then GGCCGGCAUGGUCCCAGCCUCCUCGCUGGAGCCGGCUGGCCAACAUUCCGAGGGGACCGUCCCCUCGGUAAUGGCGAAUGGGACCCA [C30A G40C], with 0.0277. Turning to GGCCGGCAUGGUCCCAGCCUCCUCGCUGGAGCCGGCUGGGCAACAUUCCGAGGGGACCGUCCCCUCGGUAAUGGCGAAUGGGACCCC [C30A A87C], the self-cleavage was 0.596. Consider GGCCGGCAUGGUCCCAGCCUCCUCGCUGGAGCCGGCUGGGCAACAUUCCGAGGGGACCGUACCCUCGGUAAUGGCGAAUGGGACCCA [C30A C61A], for which the self-cleavage stood at 0.428.

Take GGCCGGCAUGGUCCCAGCCUCCUCGCUGGAGACGGCUGGGCAACAUUCCGAGGGGACCGUCCCCUCGGUAAUGGCGAAUGGGACCCA [C30A C32A]: the self-cleavage came to 0.0627.

Regarding GGCCGGCAUGGUCCCAGCCUCCUCGCUGGAGCCGGCUGGGCAACAUUCCGAGGGGACCGUCCCCUCGGUAAUGGCGAAUGGGACCCA [C30A], the self-cleavage was 0.547. For GGCCGGCAUGGUCCCAGCCUCCUCGCUGGAGCCGGCUGGGCAACAUUCCGAGGGGACCGUCCCCUCGGUAAUGGCGAAUGGGGCCCA [C30A A83G] the value was 0.127.

For GGCCGGCAUGGUCCCAGCCUCCUCGCUGGAGCCGGCUGGGCAACAUUCCGAGGGGACCGUCCCCUCGGUAAUGGCGAAUGGGCCCCA [C30A A83C], the self-cleavage is 0.0811. Then GGCCGGCAUGGUCCCAGCCUCCUCGCUGGAGCCGGCUGGGCAAGAUUCCGAGGGGACCGUCCCCUCGGUAAUGGCGAAUGGGACCCA [C30A C44G], with 0.0831. In the case of GGCCGGCAUGGUCCCAGCCUCCUCGCUGGAGCCGGCUGGGCAAAAUUCCGAGGGGACCGUCCCCUCGGUAAUGGCGAAUGGGACCCA [C30A C44A], the self-cleavage turned out to be 0.208. Then GGCCGGCAUGGUCCCAGCCUCCUCGCUGGAGCCGGCUGGGCAACAUUCCGAGGGGACCGUCCCCUCGGUCAUGGCGAAUGGGACCCA [C30A A70C], with 0.491; and GGCCGGCAUGGUCCCAGCCUCCUCGCUGGAGCCGGCUGGGCAACAUUCCGAGGGGACCGUCCCCUCGGUGAUGGCGAAUGGGACCCA [C30A A70G], with 0.332; and GGCCGGCAUGGUCCCAGCCUCCUCGCUGGAGCCGGCUGGGCAACAUUCCGAGGGGACCGUCCCCUCGGUAAUGGCGAAUGGGACCGA [C30A C86G], with 0.475.

GGCCGGCAUGGUCCCAGCCUCCUCGCUGGAGCCGGCUGGGCAACAUUCCGAGGGGGCCGUCCCCUCGGUAAUGGCGAAUGGGACCCA [C30A A56G]: the self-cleavage is 0.529. For GGCCGGCAUGGUCCCAGCCUCCUCGCUGGAGCCGGCUGGGCAACAUUCCGUGGGGACCGUCCCCUCGGUAAUGGCGAAUGGGACCCA [C30A A51U] the value was 0.735.

With GGCCGGCAUGGUCCCAGCCUCCUCGCUGGAGCCGGCUGGGCAACAUUCCGCGGGGACCGUCCCCUCGGUAAUGGCGAAUGGGACCCA [C30A A51C], the self-cleavage worked out at 0.612.
